Test results taken from PMC3241668.

Target: Daedalus-expressed CARMA-CARD (N-terminal CARD domain of human CARMA1, Asp2-Thr104) (human)
Test: SEC

Daedalus-expressed CARMA-CARD (N-terminal CARD domain of human CARMA1, Asp2-Thr104) (domain or fragment)
stoichiometry N: 2
